# Test results: patent US20180016339A1 (University of Washington, published 2018)
# T1: human MICB expressed on cells (TRAMP-MICB) (human, UniProt Q29980 23-383)
# T1 construct: also called TC2 derivative TRAMP-MICB
# T1 sequence: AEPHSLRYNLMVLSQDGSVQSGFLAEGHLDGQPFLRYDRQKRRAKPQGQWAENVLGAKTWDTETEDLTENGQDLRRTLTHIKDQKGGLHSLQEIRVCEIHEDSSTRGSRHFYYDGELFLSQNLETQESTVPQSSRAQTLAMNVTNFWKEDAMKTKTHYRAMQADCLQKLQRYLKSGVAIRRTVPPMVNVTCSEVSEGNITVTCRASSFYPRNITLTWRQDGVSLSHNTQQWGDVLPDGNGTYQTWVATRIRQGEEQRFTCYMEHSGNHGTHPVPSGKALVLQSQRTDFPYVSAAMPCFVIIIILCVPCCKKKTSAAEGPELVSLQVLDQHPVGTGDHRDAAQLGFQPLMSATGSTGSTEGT
# B1: monoclonal antibody P2B10G5 (antibody, V domains shown)
# VH: EVQLEESGPGLVKPSQSLSLTCTVTGYSITSDYAWNWIRQFPGNKLEWMGYISYSGSTNYNPSLKSRISITRDTSKNQFFLQLNSVITEDTATYYCARGGTYFDYWGQGTTLTVSS
# VL: DIVLTQTTSYLSVSLGGRVTIACKASAHINNWLAWYQQKPGNAPRLLISDATSLETGVPSRFSGSGSGKDYTLSITSLQTEDVATYYCQHYWSTPWTFGGGTKLEIKR
# notes: Mouse hybridoma antibody, IgG1 kappa, raised against recombinant soluble MIC; also called mAb B10G5; anti-sMIC
# Target: T1, human MICB expressed on cells …
# Test: flow cytometry on TRAMP-MICB cells, 2 ug/ml antibody, PE goat anti-mouse IgG
# Protocol: Cells were analyzed with BD FACSscan. Data were analyzed with CellQuest software.
binder,measurement,value
B1,binding result,binds
